Reference: publication PMC4748810, “Structural basis for the endoribonuclease activity of the type III-A CRISPR-associated protein Csm6” (RNA, 2016)

B1: Thermus thermophilus Csm6 (enzyme, UniProt Q53W17 1-464, looked up)
chain: MEDLDALWERYREAVRAGGNPQALYQEMVWPALLALWREKPRVYPFPQAFAVSVHTLGTSPEATALAILGAGAERVYVLHTPESARFLPRLRQDTGKDLYPVEIGKSDVEAIYREVKRLLEKHPEVPVALDLTSGTKAMSAGLAAAGFFFQRFYPKVRVVYVDNEDYDPELRRPRAGTEKLRILPNPHEALAEVDALFAKELYGKGEFGQAAAYFRGMVGRTGNQAYALYALLAEMYRAWRALDFGEALKAGRKLLGQLSQNVWLNHPLNARREALEAQVALLEAVDRFLKARDFALKEGVYGLARTLLHLAQEAKEEAAVLAALYAYRALELLLQERLALLGRRAEAPGLSPEEAEALRKALAELLGVLPEEVRLPAKLGLLDLLAFLRLKGDEALGRLSLAELRGLAGALKGRNSALLVHGFDVPSPKAVEGIARLAQGLLQDLEARTALGPLSPEPVPLGF
notes: amplified from genomic DNA; Homodimer in the crystal and in solution; also called TtCsm6; TTHB152; not shown: His6, N-terminal, cleaved
B2: TtCsm6 with His422 substituted by alanine (enzyme, Thermus thermophilus, UniProt Q53W17 1-464, looked up)
chain: MEDLDALWERYREAVRAGGNPQALYQEMVWPALLALWREKPRVYPFPQAFAVSVHTLGTSPEATALAILGAGAERVYVLHTPESARFLPRLRQDTGKDLYPVEIGKSDVEAIYREVKRLLEKHPEVPVALDLTSGTKAMSAGLAAAGFFFQRFYPKVRVVYVDNEDYDPELRRPRAGTEKLRILPNPHEALAEVDALFAKELYGKGEFGQAAAYFRGMVGRTGNQAYALYALLAEMYRAWRALDFGEALKAGRKLLGQLSQNVWLNHPLNARREALEAQVALLEAVDRFLKARDFALKEGVYGLARTLLHLAQEAKEEAAVLAALYAYRALELLLQERLALLGRRAEAPGLSPEEAEALRKALAELLGVLPEEVRLPAKLGLLDLLAFLRLKGDEALGRLSLAELRGLAGALKGRNSALLVAGFDVPSPKAVEGIARLAQGLLQDLEARTALGPLSPEPVPLGF
notes: also called H422A; not shown: His6, N-terminal, cleaved
B3: TtCsm6 with Asn416 substituted by alanine (enzyme, Thermus thermophilus, UniProt Q53W17 1-464, looked up)
chain: MEDLDALWERYREAVRAGGNPQALYQEMVWPALLALWREKPRVYPFPQAFAVSVHTLGTSPEATALAILGAGAERVYVLHTPESARFLPRLRQDTGKDLYPVEIGKSDVEAIYREVKRLLEKHPEVPVALDLTSGTKAMSAGLAAAGFFFQRFYPKVRVVYVDNEDYDPELRRPRAGTEKLRILPNPHEALAEVDALFAKELYGKGEFGQAAAYFRGMVGRTGNQAYALYALLAEMYRAWRALDFGEALKAGRKLLGQLSQNVWLNHPLNARREALEAQVALLEAVDRFLKARDFALKEGVYGLARTLLHLAQEAKEEAAVLAALYAYRALELLLQERLALLGRRAEAPGLSPEEAEALRKALAELLGVLPEEVRLPAKLGLLDLLAFLRLKGDEALGRLSLAELRGLAGALKGRASALLVHGFDVPSPKAVEGIARLAQGLLQDLEARTALGPLSPEPVPLGF
notes: also called N416A; not shown: His6, N-terminal, cleaved
B4: TtCsm6 with Glu332 substituted by alanine (enzyme, Thermus thermophilus, UniProt Q53W17 1-464, looked up)
chain: MEDLDALWERYREAVRAGGNPQALYQEMVWPALLALWREKPRVYPFPQAFAVSVHTLGTSPEATALAILGAGAERVYVLHTPESARFLPRLRQDTGKDLYPVEIGKSDVEAIYREVKRLLEKHPEVPVALDLTSGTKAMSAGLAAAGFFFQRFYPKVRVVYVDNEDYDPELRRPRAGTEKLRILPNPHEALAEVDALFAKELYGKGEFGQAAAYFRGMVGRTGNQAYALYALLAEMYRAWRALDFGEALKAGRKLLGQLSQNVWLNHPLNARREALEAQVALLEAVDRFLKARDFALKEGVYGLARTLLHLAQEAKEEAAVLAALYAYRALALLLQERLALLGRRAEAPGLSPEEAEALRKALAELLGVLPEEVRLPAKLGLLDLLAFLRLKGDEALGRLSLAELRGLAGALKGRNSALLVHGFDVPSPKAVEGIARLAQGLLQDLEARTALGPLSPEPVPLGF
notes: also called E332A; not shown: His6, N-terminal, cleaved
B5: TtCsm6 with Arg415 substituted by alanine (enzyme, Thermus thermophilus, UniProt Q53W17 1-464, looked up)
chain: MEDLDALWERYREAVRAGGNPQALYQEMVWPALLALWREKPRVYPFPQAFAVSVHTLGTSPEATALAILGAGAERVYVLHTPESARFLPRLRQDTGKDLYPVEIGKSDVEAIYREVKRLLEKHPEVPVALDLTSGTKAMSAGLAAAGFFFQRFYPKVRVVYVDNEDYDPELRRPRAGTEKLRILPNPHEALAEVDALFAKELYGKGEFGQAAAYFRGMVGRTGNQAYALYALLAEMYRAWRALDFGEALKAGRKLLGQLSQNVWLNHPLNARREALEAQVALLEAVDRFLKARDFALKEGVYGLARTLLHLAQEAKEEAAVLAALYAYRALELLLQERLALLGRRAEAPGLSPEEAEALRKALAELLGVLPEEVRLPAKLGLLDLLAFLRLKGDEALGRLSLAELRGLAGALKGANSALLVHGFDVPSPKAVEGIARLAQGLLQDLEARTALGPLSPEPVPLGF
notes: also called R415A; not shown: His6, N-terminal, cleaved

Molecular target: the molecule itself
Test: SEC; size-exclusion chromatography of purified proteins (Supplemental Fig. 3); the purification used Superdex 200 (26/600) in 20 mM HEPES 7.5, 500 mM KCl

Stoichiometry N, 2:
B1
B2
B3
B4
B5
